Measurements from article doi:10.1101/2024.09.27.615457 (bioRxiv, 2024).

Target: T1, MBP-tagged bHLH107 (Arabidopsis, UniProt Q9LET0 1-230)
T1 sequence (looked up): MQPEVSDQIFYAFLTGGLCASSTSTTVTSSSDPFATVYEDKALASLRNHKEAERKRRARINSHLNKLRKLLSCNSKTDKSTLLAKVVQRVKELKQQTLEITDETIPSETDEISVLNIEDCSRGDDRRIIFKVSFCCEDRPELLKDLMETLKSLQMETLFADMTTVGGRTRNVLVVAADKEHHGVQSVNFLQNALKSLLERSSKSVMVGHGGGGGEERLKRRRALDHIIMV
Test: pull-down

B1: His-tagged HY5 (natural protein, Arabidopsis, UniProt O24646 1-168, looked up)
chain: MQEQATSSLAASSLPSSSERSSSSAPHLEIKEGIESDEEIRRVPEFGGEAVGKETSGRESGSATGQERTQATVGESQRKRGRTPAEKENKRLKRLLRNRVSAQQARERKKAYLSELENRVKDLENKNSELEERLSTLQNENQMLRHILKNTTGNKRGGGGGSNADASL
B1: binds.
